Paper PMC2602784

Columns and labels:
Assay in all cases: EMSA
LldR K4A = biological target: T1, LldR K4A (Corynebacterium glutamicum ATCC 1332 …, UniProt Q8NLM6 1-231, K4A)
T1 sequence: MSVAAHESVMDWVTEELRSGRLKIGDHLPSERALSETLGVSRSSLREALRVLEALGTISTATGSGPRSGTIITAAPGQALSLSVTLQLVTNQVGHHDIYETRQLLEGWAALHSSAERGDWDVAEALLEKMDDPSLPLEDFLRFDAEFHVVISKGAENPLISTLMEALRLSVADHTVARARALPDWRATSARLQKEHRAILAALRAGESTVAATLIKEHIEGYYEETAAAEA

LldR G63A = biological target: T2, LldR G63A (Corynebacterium glutamicum ATCC 1332 …, UniProt Q8NLM6 1-231, G63A)
T2 sequence: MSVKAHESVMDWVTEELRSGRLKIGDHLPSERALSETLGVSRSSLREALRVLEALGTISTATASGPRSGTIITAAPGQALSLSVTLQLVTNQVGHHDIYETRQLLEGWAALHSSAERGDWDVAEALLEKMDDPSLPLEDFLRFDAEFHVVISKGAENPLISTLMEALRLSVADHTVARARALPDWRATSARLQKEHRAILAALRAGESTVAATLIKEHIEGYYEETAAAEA

LldR R32A = biological target: T3, LldR R32A (Corynebacterium glutamicum ATCC 1332 …, UniProt Q8NLM6 1-231, R32A)
T3 sequence: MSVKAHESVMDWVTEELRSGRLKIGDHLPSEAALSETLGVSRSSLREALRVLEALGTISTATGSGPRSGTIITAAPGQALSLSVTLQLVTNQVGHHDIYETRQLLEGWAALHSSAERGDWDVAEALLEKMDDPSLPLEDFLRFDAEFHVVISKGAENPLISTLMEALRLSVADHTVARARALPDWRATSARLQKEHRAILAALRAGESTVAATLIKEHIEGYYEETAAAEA

LldR R42A = biological target: T4, LldR R42A (Corynebacterium glutamicum ATCC 1332 …, UniProt Q8NLM6 1-231, R42A)
T4 sequence: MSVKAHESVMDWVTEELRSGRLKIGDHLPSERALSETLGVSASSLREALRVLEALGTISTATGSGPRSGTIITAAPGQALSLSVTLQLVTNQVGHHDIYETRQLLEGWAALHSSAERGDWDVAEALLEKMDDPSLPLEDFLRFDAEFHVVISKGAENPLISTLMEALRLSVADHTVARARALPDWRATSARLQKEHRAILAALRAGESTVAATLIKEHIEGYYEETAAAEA

Measured: binding result

B1: cgl2917-site1 (dsDNA)
DNA 1: TTGTGGTCTGACCATGA
DNA 2: TCATGGTCAGACCACAA
no binding: LldR K4A | LldR G63A | LldR R32A | LldR R42A
